Reference: the supplement of paper PMC9170038

System: MS2 coat protein
Assay: apparent KD of MS2 coat protein; designed switch direction (-1 OFF switch, 1 ON switch): -1; higher = weaker reporter binding
Summary of the method: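 Each step of the titration lasted 0.8–1.5 h at the lowest concentration and 10–20 min at the highest. The protein, SNAP-549-labelled MS2 coat protein, went from 0.7 or 1.5 nM doubling to 3 µM over RNA switches transcribed on Illumina chips by stalled E. coli RNA polymerase. Normalised cluster fluorescence was curve-fitted, and the per-design median over clusters is given as apparent KD.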

[1] = Eterna round: R95, input ligand: FMN 200 uM
[2] = Eterna round: R95, input ligand: microRNA oligo, concentration not stated
[3] = Eterna round: R95, input ligand: none
[4] = input ligand: microRNA oligo, concentration not stated

For “GGAAUACAUGAGGAUCACCCAUGUAAGGAUAUGCUGAAUAUUACGGAAUAAACGUGCAGCAGAAGGUACAAAGG [Mat - Mod of my Eli Mod D47] (puzzle: Exclusion 1)”, the “apparent KD of MS2 coat protein” value [1] was 105 nM, the “apparent KD of MS2 coat protein” value [2] was 83.4 nM and the “apparent KD of MS2 coat protein” value [3] was 125 nM.
For “GGACAUAAAGUCAGGAUAUUAAGGCGAACAAGCGAUGAGAAGGGACAUGAGGAUCACCCAUGUGAUUCGCAUCA [Raerce] (Eterna round: R97, puzzle: Brourd's mod of Exclusion 4)”, the “apparent KD of MS2 coat protein” value (input ligand: FMN 200 uM) was 32.7 nM and the “apparent KD of MS2 coat protein” value (input ligand: none) was 24.1 nM.
With “GGACCACAUGAGGAUCACCCAUGUCAGGAUAUGACGGCGUCGGCGAAAGCGGAGGCGGUCAGAAGGGACGGAAA [AK-MS2ROC-r4-exclusion1-9.0] (Eterna round: R97, puzzle: Exclusion 1)” the “apparent KD of MS2 coat protein” value (input ligand: FMN 200 uM) was 84.6 nM and the “apparent KD of MS2 coat protein” value (input ligand: none) was 34 nM.
For “GGAGCGAUUCUCUUAGUUAACAUGAGGAUCACCCAUGUGUACAAGCUCUUAUUUUGCUCGUCUUACCGAGAGUUGCC [Tienve] (puzzle: Sensor v3, turn-off variant 1)”, the “apparent KD of MS2 coat protein” value [1] was 22.6 nM, the “apparent KD of MS2 coat protein” value [2] was 74.3 nM and the “apparent KD of MS2 coat protein” value [3] was 24.7 nM.
In the case of “GGAUAAAAGUCAGGAUAUACGUAUCGCUAGCGAGUAGAAGGGACACAUGAGGAUCACCCAUGUGAGUUCUCAAUAAGAAACACG [Prohibition 61 - Jieux - Exclusion NG 1] (Eterna round: R96, puzzle: Exclusion NG 1)”, the “apparent KD of MS2 coat protein” value (input ligand: FMN 200 uM) is reported as 45.5 nM, the “apparent KD of MS2 coat protein” value [4] is reported as 16.3 nM and the “apparent KD of MS2 coat protein” value (input ligand: none) is reported as 19.5 nM.
In the case of “GGAUAUAACGUAGGAUAUCAGAGAAACAGACGAUGAGAAGGACGACAUGAGGAUCACCCAUGUGAUCUAUCAAUAUUAUACAUG [Prohibition 98 - Jieux - Exclusion NG 1] (Eterna round: R96, puzzle: Exclusion NG 1)”, the “apparent KD of MS2 coat protein” value (input ligand: FMN 200 uM) is reported as 874 nM, the “apparent KD of MS2 coat protein” value [4] is reported as 434 nM and the “apparent KD of MS2 coat protein” value (input ligand: none) is reported as 712 nM.
“GGAUAUAAUGUGAGGAUAUCUGCGAUACCUAGUCGAGAGAAGGCACAUGAGGAUCACCCAUGUGAGGACCUCGU [Eternabot (L1) Solution 98] (Eterna round: R97, puzzle: Brourd's mod of Exclusion 4)” was tested, and the “apparent KD of MS2 coat protein” value (input ligand: FMN 200 uM) was 29.6 nM and the “apparent KD of MS2 coat protein” value (input ligand: none) was 19.4 nM.
For “GGAUCGAAAGUGAGGAUAUACCUAUGGAAACAUAGGUAGAAGGCACAUGAGGAUCACCCAUGUUCCUACGGUCC [Mat - Exclusion 4 - Eli Mod - D10] (Eterna round: R97, puzzle: Brourd's mod of Exclusion 4)”, the “apparent KD of MS2 coat protein” value (input ligand: FMN 200 uM) was 113 nM and the “apparent KD of MS2 coat protein” value (input ligand: none) was 20 nM.
For “GGAUCGAGUGUGAGGAUAUACCUAUGGAAACAUAGGUAGAAGGCACAUGAGGAUCACCCAUGUUCCUACGGUCC [Mat - Exclusion 4 - Eli Mod - D8] (Eterna round: R97, puzzle: Brourd's mod of Exclusion 4)”, the “apparent KD of MS2 coat protein” value (input ligand: FMN 200 uM) was 658 nM and the “apparent KD of MS2 coat protein” value (input ligand: none) was 75.5 nM.
In the case of “GGAUCGUAUGUCAGGAUAUACCACUGGAUACAGUGGUAGAAGGGACAUGAGGAUCACCCAUGUCCUAUCGAUCC [Fiskers BMX 4 - 51] (puzzle: Brourd's mod of Exclusion 4)”, the “apparent KD of MS2 coat protein” value [2] is reported as 12 nM.
For “GGAUCGUAUGUCAGGAUAUACCACUGGAUACAGUGGUAGAAGGGACAUGAGGAUCACCCAUGUUCUAUCGAUCC [Fiskers BMX 4 - 53] (puzzle: Brourd's mod of Exclusion 4)”, the “apparent KD of MS2 coat protein” value [2] was 12.5 nM.
In the case of “GGAUCGUAUGUGAGGAUAUACCACUGGAUACAGUGGUAGAAGGCACAUGAGGAUCACCCAUGUCCUAUCGAUCC [Fiskers BMX 4 - 54] (puzzle: Brourd's mod of Exclusion 4)”, the “apparent KD of MS2 coat protein” value [2] is reported as 132 nM.
For “GGAUCUACUGAGGAUAUUAUAUCACCCGACUGAUAAGAAGGCAGUACAUGAGGAUCACCCAUGUGGGUAGCCAU [Polaris8] (Eterna round: R97, puzzle: Exclusion 6)”, the “apparent KD of MS2 coat protein” value (input ligand: FMN 200 uM) was 64.3 nM and the “apparent KD of MS2 coat protein” value (input ligand: none) was 34.8 nM.
For “GGAUGUCUAAAGGAUAUGCUGGAUUAAUAUCUGGCAGAAGGUUGGACAUGAGGAUCACCCAUGUAAAUUCUGCC [Omei Ex6 A11] (Eterna round: R97, puzzle: Exclusion 6)”, the “apparent KD of MS2 coat protein” value (input ligand: FMN 200 uM) was 24.6 nM and the “apparent KD of MS2 coat protein” value (input ligand: none) was 17.3 nM.
“GGAUUGUCAGGAUAUCUUAUACUUCAUAAGUGAGGAUAAAUAGAGAAGGGACAUGAGGAUCACCCAUGUAAUAA [Exclusion 4 S1] (Eterna round: R97, puzzle: Exclusion 4)” was tested, and the “apparent KD of MS2 coat protein” value (input ligand: FMN 200 uM) was 152 nM and the “apparent KD of MS2 coat protein” value (input ligand: none) was 36.8 nM.
With “GGCAAACAUGAGGAUCACCCAUGUCAGGAUAUUAGGCGAUCGUCGAAAGACGAUAGCCUGAGAAGGGACAUGCC [Eli x1 4.16] (Eterna round: R97, puzzle: Exclusion 1)” the “apparent KD of MS2 coat protein” value (input ligand: FMN 200 uM) was 238 nM and the “apparent KD of MS2 coat protein” value (input ligand: none) was 103 nM.
In the case of “GGCAGACAUGAGGAUCACCCAUGUCAGGAUAUGGUGCGAUCGUCGAUAGACGAUAGCACCAGAAGGGACAUGCC [Mat - Exclusion 1 - Eli Mod - D3] (Eterna round: R97, puzzle: Exclusion 1)”, the “apparent KD of MS2 coat protein” value (input ligand: FMN 200 uM) is reported as 39.7 nM and the “apparent KD of MS2 coat protein” value (input ligand: none) is reported as 21.4 nM.
In the case of “GGCAGUCGAGGAUAUACAAUCGUGCUUCGGCACGUAAGAUCACAUGAGGAUCACCCAUGUAGAAGGCGACUGCC [E2/1-A1] (Eterna round: R97, puzzle: Exclusion 2)”, the “apparent KD of MS2 coat protein” value (input ligand: FMN 200 uM) is reported as 749 nM and the “apparent KD of MS2 coat protein” value (input ligand: none) is reported as 53.2 nM.
In the case of “GGCAUCGGAGGAUAUACUUAUGGUGAUACCGGAAGCUUUCUACUUGAGGAUCACCCAAGUAGAAGGCCGAUGCC [jl-ex2.4.84 ViennaUCT mod] (Eterna round: R97, puzzle: Exclusion 2)”, the “apparent KD of MS2 coat protein” value (input ligand: FMN 200 uM) is reported as 9.01 nM and the “apparent KD of MS2 coat protein” value (input ligand: none) is reported as 22.9 nM.
With “GGCAUGCAAGGAUAUACUUACAGUGAUGUUCGAAUAAGUCUACUUGAGGAUCACCCAAGUAGAAGGUGCAUGCC [Exclusion 2 (Mod3.1 JL EX2 4.74 Vienna UCT mod of Mamaed)] (Eterna round: R97, puzzle: Exclusion 2)” the “apparent KD of MS2 coat protein” value (input ligand: FMN 200 uM) was 62.8 nM and the “apparent KD of MS2 coat protein” value (input ligand: none) was 16 nM.
For “GGCAUGUAAGGAUAUGCCACGGAGGCCUUUGGCCUCCGAAAGCAGAAGGUACAUGAGGAUCACCCAUGUGAUAA [jl-ex4-4.59 ViennaUCT mod] (Eterna round: R97, puzzle: Exclusion 4)”, the “apparent KD of MS2 coat protein” value (input ligand: FMN 200 uM) was 467 nM and the “apparent KD of MS2 coat protein” value (input ligand: none) was 390 nM.
For “GGCCCUAAGGUCAGAUUCACAAGCUUUUUGCUCGUUUUAACAUGAGGAUCACCCAUGUCUAGUGGAUUUGAUCCUUA [Sensor v3, turn-off variant 2 (MOD of Indiso v.7)] (puzzle: Sensor v3, turn-off variant 2)”, the “apparent KD of MS2 coat protein” value [1] was 21.8 nM, the “apparent KD of MS2 coat protein” value [2] was 20 nM and the “apparent KD of MS2 coat protein” value [3] was 18.9 nM.
In the case of “GGCCUCGCGGUCAGGAUAUAUUGCUGUAAUCAGUGGUAGAAGGGACAUGAGGAUCACCCAUGUACCUAGGACAU [BmEX4 C.20] (Eterna round: R97, puzzle: Brourd's mod of Exclusion 4)”, the “apparent KD of MS2 coat protein” value (input ligand: FMN 200 uM) is reported as 33.4 nM and the “apparent KD of MS2 coat protein” value (input ligand: none) is reported as 18.9 nM.
With “GGCCUGGAAGGAUAUACAUGAGGAUCACCCAUGUGAAGCCGGUGCAAAUUGACACGAUGUAGAAGGUCCAGCCG [Eternabot (L1) Solution 92] (Eterna round: R97, puzzle: Exclusion 3)” the “apparent KD of MS2 coat protein” value (input ligand: FMN 200 uM) was 467 nM and the “apparent KD of MS2 coat protein” value (input ligand: none) was 172 nM.
In the case of “GGCCUGUAAGGAUAUUAGUAGUAGUCAGAAUAGACUAUUACUGAGAAGGUACAUGAGGAUCACCCAUGUUGGCC [Eli x4 4.06] (Eterna round: R97, puzzle: Exclusion 4)”, the “apparent KD of MS2 coat protein” value (input ligand: FMN 200 uM) is reported as 17.7 nM and the “apparent KD of MS2 coat protein” value (input ligand: none) is reported as 14 nM.
